The text below walks through data of publication PMC10786891, “Massively parallel profiling of RNA-targeting CRISPR-Cas13d”.

T1: EsCas13d, nuclease-dead (Eubacterium siraeum, UniProt B0MS50, R295A;H300A;R849A;H854A)
T1 sequence: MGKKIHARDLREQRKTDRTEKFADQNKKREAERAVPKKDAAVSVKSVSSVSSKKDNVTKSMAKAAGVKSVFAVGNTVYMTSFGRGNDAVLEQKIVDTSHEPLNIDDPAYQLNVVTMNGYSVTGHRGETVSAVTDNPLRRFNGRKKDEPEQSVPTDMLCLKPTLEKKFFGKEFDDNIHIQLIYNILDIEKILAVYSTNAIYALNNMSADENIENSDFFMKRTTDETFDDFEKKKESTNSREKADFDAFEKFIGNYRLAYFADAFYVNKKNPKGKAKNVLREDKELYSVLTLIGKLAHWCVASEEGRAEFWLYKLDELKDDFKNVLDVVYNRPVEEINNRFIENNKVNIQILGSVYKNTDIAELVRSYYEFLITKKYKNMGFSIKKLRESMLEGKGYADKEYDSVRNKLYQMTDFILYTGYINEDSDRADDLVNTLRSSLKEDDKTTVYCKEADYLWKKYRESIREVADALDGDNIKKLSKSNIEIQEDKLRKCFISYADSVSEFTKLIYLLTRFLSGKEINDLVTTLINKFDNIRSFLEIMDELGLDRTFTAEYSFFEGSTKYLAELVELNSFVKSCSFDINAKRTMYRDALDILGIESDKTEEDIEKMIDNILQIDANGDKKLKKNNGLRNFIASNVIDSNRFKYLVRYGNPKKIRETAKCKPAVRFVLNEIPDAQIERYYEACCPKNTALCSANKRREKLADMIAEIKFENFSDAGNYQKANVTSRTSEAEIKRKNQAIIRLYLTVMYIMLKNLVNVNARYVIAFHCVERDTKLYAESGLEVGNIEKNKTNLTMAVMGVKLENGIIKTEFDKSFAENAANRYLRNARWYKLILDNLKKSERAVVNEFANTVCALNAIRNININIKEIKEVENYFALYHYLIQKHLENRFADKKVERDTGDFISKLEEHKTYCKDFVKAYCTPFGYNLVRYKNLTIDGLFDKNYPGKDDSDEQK

B1: target 2 MT 5'PFS UAU 3'PFS UUU (mixed)
RNA 1: CACCCGUGCAAAAUUGCAGGGGUCUAAAACCUUCUCCAAAUUGUUUCAUCCU
RNA 2: GGGAAUGGAUCCACAUCUACGAAUUCUAUAGGAUGAAACAAUUUGGAGAAGUUUAGAUCGGAAGAGCACACGU
B2: target 2 MT 5'PFS AUC 3'PFS AAC (mixed)
RNA 1: CACCCGUGCAAAAUUGCAGGGGUCUAAAACCUUCUCCAAAUUGUUUCAUCCU
RNA 2: GGGAAUGGAUCCACAUCUACGAAUUCAUCAGGAUGAAACAAUUUGGAGAAGAACAGAUCGGAAGAGCACACGU
B3: target 2 MT 5'PFS GCA 3'PFS UAU (mixed)
RNA 1: CACCCGUGCAAAAUUGCAGGGGUCUAAAACCUUCUCCAAAUUGUUUCAUCCU
RNA 2: GGGAAUGGAUCCACAUCUACGAAUUCGCAAGGAUGAAACAAUUUGGAGAAGUAUAGAUCGGAAGAGCACACGU
B4: target 2 MT 5'PFS UCA 3'PFS CUC (mixed)
RNA 1: CACCCGUGCAAAAUUGCAGGGGUCUAAAACCUUCUCCAAAUUGUUUCAUCCU
RNA 2: GGGAAUGGAUCCACAUCUACGAAUUCUCAAGGAUGAAACAAUUUGGAGAAGCUCAGAUCGGAAGAGCACACGU
B5: target 2 MT 5'PFS UAU 3'PFS CAA (mixed)
RNA 1: CACCCGUGCAAAAUUGCAGGGGUCUAAAACCUUCUCCAAAUUGUUUCAUCCU
RNA 2: GGGAAUGGAUCCACAUCUACGAAUUCUAUAGGAUGAAACAAUUUGGAGAAGCAAAGAUCGGAAGAGCACACGU
B6: target 2 MT 5'PFS GAC 3'PFS UAC (mixed)
RNA 1: CACCCGUGCAAAAUUGCAGGGGUCUAAAACCUUCUCCAAAUUGUUUCAUCCU
RNA 2: GGGAAUGGAUCCACAUCUACGAAUUCGACAGGAUGAAACAAUUUGGAGAAGUACAGAUCGGAAGAGCACACGU
B7: target 2 MT 5'PFS GAC 3'PFS UAG (mixed)
RNA 1: CACCCGUGCAAAAUUGCAGGGGUCUAAAACCUUCUCCAAAUUGUUUCAUCCU
RNA 2: GGGAAUGGAUCCACAUCUACGAAUUCGACAGGAUGAAACAAUUUGGAGAAGUAGAGAUCGGAAGAGCACACGU
B8: target 2 MT 5'PFS AAA 3'PFS UCG (mixed)
RNA 1: CACCCGUGCAAAAUUGCAGGGGUCUAAAACCUUCUCCAAAUUGUUUCAUCCU
RNA 2: GGGAAUGGAUCCACAUCUACGAAUUCAAAAGGAUGAAACAAUUUGGAGAAGUCGAGAUCGGAAGAGCACACGU
B9: target 2 MT 5'PFS GCA 3'PFS UAG (mixed)
RNA 1: CACCCGUGCAAAAUUGCAGGGGUCUAAAACCUUCUCCAAAUUGUUUCAUCCU
RNA 2: GGGAAUGGAUCCACAUCUACGAAUUCGCAAGGAUGAAACAAUUUGGAGAAGUAGAGAUCGGAAGAGCACACGU
B10: target 2 MT 5'PFS UAU 3'PFS CAG (mixed)
RNA 1: CACCCGUGCAAAAUUGCAGGGGUCUAAAACCUUCUCCAAAUUGUUUCAUCCU
RNA 2: GGGAAUGGAUCCACAUCUACGAAUUCUAUAGGAUGAAACAAUUUGGAGAAGCAGAGAUCGGAAGAGCACACGU
B11: target 2 MT 5'PFS UCA 3'PFS CUG (mixed)
RNA 1: CACCCGUGCAAAAUUGCAGGGGUCUAAAACCUUCUCCAAAUUGUUUCAUCCU
RNA 2: GGGAAUGGAUCCACAUCUACGAAUUCUCAAGGAUGAAACAAUUUGGAGAAGCUGAGAUCGGAAGAGCACACGU
B12: target 2 MT 5'PFS AAA 3'PFS UCC (mixed)
RNA 1: CACCCGUGCAAAAUUGCAGGGGUCUAAAACCUUCUCCAAAUUGUUUCAUCCU
RNA 2: GGGAAUGGAUCCACAUCUACGAAUUCAAAAGGAUGAAACAAUUUGGAGAAGUCCAGAUCGGAAGAGCACACGU
B13: target 2 MT 5'PFS UAU 3'PFS UUG (mixed)
RNA 1: CACCCGUGCAAAAUUGCAGGGGUCUAAAACCUUCUCCAAAUUGUUUCAUCCU
RNA 2: GGGAAUGGAUCCACAUCUACGAAUUCUAUAGGAUGAAACAAUUUGGAGAAGUUGAGAUCGGAAGAGCACACGU
B14: target 2 MT 5'PFS GCA 3'PFS UAC (mixed)
RNA 1: CACCCGUGCAAAAUUGCAGGGGUCUAAAACCUUCUCCAAAUUGUUUCAUCCU
RNA 2: GGGAAUGGAUCCACAUCUACGAAUUCGCAAGGAUGAAACAAUUUGGAGAAGUACAGAUCGGAAGAGCACACGU
B15: target 2 MT 5'PFS UAU 3'PFS UUA (mixed)
RNA 1: CACCCGUGCAAAAUUGCAGGGGUCUAAAACCUUCUCCAAAUUGUUUCAUCCU
RNA 2: GGGAAUGGAUCCACAUCUACGAAUUCUAUAGGAUGAAACAAUUUGGAGAAGUUAAGAUCGGAAGAGCACACGU
B16: target 2 MT 5'PFS GCA 3'PFS UAA (mixed)
RNA 1: CACCCGUGCAAAAUUGCAGGGGUCUAAAACCUUCUCCAAAUUGUUUCAUCCU
RNA 2: GGGAAUGGAUCCACAUCUACGAAUUCGCAAGGAUGAAACAAUUUGGAGAAGUAAAGAUCGGAAGAGCACACGU
B17: target 2 MT 5'PFS CAU 3'PFS ACC (mixed)
RNA 1: CACCCGUGCAAAAUUGCAGGGGUCUAAAACCUUCUCCAAAUUGUUUCAUCCU
RNA 2: GGGAAUGGAUCCACAUCUACGAAUUCCAUAGGAUGAAACAAUUUGGAGAAGACCAGAUCGGAAGAGCACACGU
B18: target 2 MT 5'PFS CUG 3'PFS AUC (mixed)
RNA 1: CACCCGUGCAAAAUUGCAGGGGUCUAAAACCUUCUCCAAAUUGUUUCAUCCU
RNA 2: GGGAAUGGAUCCACAUCUACGAAUUCCUGAGGAUGAAACAAUUUGGAGAAGAUCAGAUCGGAAGAGCACACGU
B19: target 2 MT 5'PFS CAU 3'PFS ACA (mixed)
RNA 1: CACCCGUGCAAAAUUGCAGGGGUCUAAAACCUUCUCCAAAUUGUUUCAUCCU
RNA 2: GGGAAUGGAUCCACAUCUACGAAUUCCAUAGGAUGAAACAAUUUGGAGAAGACAAGAUCGGAAGAGCACACGU
B20: target 2 MT 5'PFS GAC 3'PFS UAU (mixed)
RNA 1: CACCCGUGCAAAAUUGCAGGGGUCUAAAACCUUCUCCAAAUUGUUUCAUCCU
RNA 2: GGGAAUGGAUCCACAUCUACGAAUUCGACAGGAUGAAACAAUUUGGAGAAGUAUAGAUCGGAAGAGCACACGU
B21: target 2 MT 5'PFS UCA 3'PFS CUA (mixed)
RNA 1: CACCCGUGCAAAAUUGCAGGGGUCUAAAACCUUCUCCAAAUUGUUUCAUCCU
RNA 2: GGGAAUGGAUCCACAUCUACGAAUUCUCAAGGAUGAAACAAUUUGGAGAAGCUAAGAUCGGAAGAGCACACGU
B22: target 2 MT 5'PFS GCG 3'PFS CGC (mixed)
RNA 1: CACCCGUGCAAAAUUGCAGGGGUCUAAAACCUUCUCCAAAUUGUUUCAUCCU
RNA 2: GGGAAUGGAUCCACAUCUACGAAUUCGCGAGGAUGAAACAAUUUGGAGAAGCGCAGAUCGGAAGAGCACACGU
B23: target 2 MT 5'PFS GAC 3'PFS UAA (mixed)
RNA 1: CACCCGUGCAAAAUUGCAGGGGUCUAAAACCUUCUCCAAAUUGUUUCAUCCU
RNA 2: GGGAAUGGAUCCACAUCUACGAAUUCGACAGGAUGAAACAAUUUGGAGAAGUAAAGAUCGGAAGAGCACACGU
B24: target 2 MT 5'PFS UAU 3'PFS CAC (mixed)
RNA 1: CACCCGUGCAAAAUUGCAGGGGUCUAAAACCUUCUCCAAAUUGUUUCAUCCU
RNA 2: GGGAAUGGAUCCACAUCUACGAAUUCUAUAGGAUGAAACAAUUUGGAGAAGCACAGAUCGGAAGAGCACACGU
B25: target 1 A1U,G13A (mixed)
RNA 1: CACCCGUGCAAAAAUGCAGGGGUCUAAAACUGAGCGGAUAACCUCUCUAUGG
RNA 2: GGGAAUGGAUCCACAUCUACGAAUUCGUACCAUAGAGAAGUUAUCCGCUCUCCGAGAUCGGAAGAGCACACGU
B26: target 1 insU 3' of 22,insG 3' of 14 (mixed)
RNA 1: CACCCGUGCAAAAAUGCAGGGGUCUAAAACUGAGCGGAUAACCUCUCUAUGG
RNA 2: GGGAAUGGAUCCACAUCUACGAAUUCGUACUCAUAGAGAGGGUUAUCCGCUCACCGAGAUCGGAAGAGCACACGU
B27: target 1 insA 3' of 13,insA 3' of 11 (mixed)
RNA 1: CACCCGUGCAAAAAUGCAGGGGUCUAAAACUGAGCGGAUAACCUCUCUAUGG
RNA 2: GGGAAUGGAUCCACAUCUACGAAUUCGUACCAUAGAGAGAGUAUAUCCGCUCACCGAGAUCGGAAGAGCACACGU

For the series, the target named is T1, EsCas13d, nuclease-dead. Put plainly: crRNA (strand 1, pre-loaded); Mg2+; 40 mM Tris-HCl pH 7.5, 150 mM NaCl, 6 mM MgCl2, 1 mM DTT, 0.1% Tween-20, 0.2 mg/ml BSA; 25 C; 10 min per concentration, then washed. Particulars: tags: His6-TwinStrep-SUMO cleaved; N-terminal SNAP kept (SNAP-Surface 488); label: 3' end held by stalled T7 RNA polymerase.
As to B1, the affinity, expressed as Kd, was 48 ± 11 nM. On to B2, for which the Kd – broadly, a measure of binding affinity in units of concentration – was found to be 25 ± 11 nM. The figure for B3 is 10.7 ± 1.5 nM; for B4 it is 8.7 ± 2.2 nM; for B5 it is 14.2 ± 1.5 nM.

B6: the equilibrium dissociation constant (Kd) turned out to be 27 ± 8 nM. In turn, B7 had a Kd of 7.5 ± 1 nM. In turn, B8 displayed a Kd of 4.9 ± 1.1 nM. The figure for B9 is 12.3 ± 2.1 nM. B10 had a dissociation constant Kd of 34 ± 7 nM. Against the preceding molecule, the Kd is about 2.8-fold higher. The figure for B11 is 7.3 ± 1.1 nM; for B12 it is 7.3 ± 1.4 nM. To B13 belongs 23.1 ± 3.1 nM; to B14, 12.3 ± 2.6 nM. Molecule B15 showed a Kd of 33 ± 9 nM. To B16 belongs 6.4 ± 1.3 nM; to B17, 5.9 ± 0.7 nM. The figure for B18 is 2.3 ± 0.4 nM; for B19 it is 6 ± 1.2 nM; for B20 it is 10.8 ± 2.4 nM. B21 returned an equilibrium dissociation constant (Kd) of 6.3 ± 1.7 nM. This Kd is about 1.7-fold lower than that of the molecule before. Molecule B22 came in with a Kd of 12 ± 0.7 nM. The molecule B23 gave a Kd of 9.5 ± 1.8 nM.

On to B24, for which the Kd was determined as 47 ± 9 nM.

Regarding B25, binding was characterised by a dissociation constant (Kd) of 6.4 ± 0.5 nM. The figure for B26 is 68 ± 22 nM; for B27 it is 3.87 ± 0.21 nM.
